Data from patent publication US10155796B2, “Compositions and methods for inhibiting tumor cells by inhibiting the transcription factor ATF5” (The Trustees of Columbia University in the City of New York, priority 2013, dated 2018).

Experiments:
endogenous ATF5 = assay: Western immunoblotting for endogenous ATF5 in U373 glioblastoma cells; assay type: cell-based, human; settings: 17 hrs
Description: (§1) TAT-linked dominant-negative ATF5 peptide at the indicated concentrations (in μM) was added to medium of U373 glioblastoma cells for 17 hrs day and the cells were then harvested and analyzed by Western immunoblotting for levels of endogenous ATF5. […] As previous studies have shown that tumor cells require endogenous ATF5 to survive, the mechanism of action by which the cell-penetrating TAT-ZIP peptide kills may be by causing loss of the endogenous ATF5 protein. Note also the smear above the endogenous ATF5 when the TAT-ZIP peptide is present.
as §1, with “ATF5 peptide was added” for “ATF5 peptide at the indicated concentrations (in μM) was added”, “glioblastoma cells at the concentrations (in μM) indicated in FIG. 14 for 17” for “glioblastoma cells for 17”, “to survive, but without being bound by theory, the mechanism” for “to survive, the mechanism”

MEL501 melanoma cells = assay: Apoptotic nuclei (Hoescht dye) in melanoma cells; assay type: cell-based, human; settings: four days, concentrations in μM per FIG. 13
Description: TAT-linked dominant-negative ATF5 peptide at the indicated concentrations (in μM) was added to medium of MEL501 melanoma cells. Four days later the cells were stained with Hoescht dye and the cells were stained for proportion with apoptotic nuclei.
TAT-linked dominant-negative ATF5 peptide was added to medium of MEL501 melanoma cells at the concentrations (in μM) indicated in FIG. 13. Four days later the cells were stained with Hoescht dye and the cells were stained for proportion with apoptotic nuclei.

MSG Cells = assay: Cell viability, MTA assay; assay type: cell-based, mouse; settings: 3 μM, 3-5 days
Description: (§2) FIG. 19 depicts recombinant TAT-d/n-ATF5 (3 μM) treatment for 3-5 days decreasing viability of two human and one mouse GMB cell line as established by MTA assay.

U373 = assay: Cell viability, MTA assay; assay type: cell-based, human; settings: 3 μM, 3-5 days
Description: as §2

[1] = system: U87 human glioblastoma cells; assay type: cell-based
Description: (§3) FIG. 21 depicts recombinant TAT-d/n-ATF5 treatment promoting death of cultured U87 human glioblastoma cells as indicated by Annexin V/PI staining and flow cytometry. Proportions of viable cells are shown in lower left quadrant (88% control vs 58% treated). Dying cell proportions are in the lower right and upper right quadrants (9% in controls vs 36% in treated).
as §3, with “As outlined in FIG.” for “FIG.”, “21, Recombinant” for “21 depicts recombinant”, “promotes” for “treatment promoting”

[2] = system: LN229 (human glioblastoma); assay: Cell line susceptibility testing; assay type: cell-based; settings: 1-3 μM range
Description: (§4) For example, but not by way of limitation, cell lines shown through testing to be susceptible to TAT-d/n-ATF5 (1-3 μM range) include: U87 (human glioblastoma); U373 (human glioblastoma); LN229 (human glioblastoma); C6 (rat glioblastoma); Mel501 (human melanoma); H2452 (human mesothelioma); MDA-MB-468 (human breast cancer). In addition, a non-limiting list of cell lines shown through testing to be susceptible to PEN-d/n-ATF5 (3 μM) include: Panc-1 (human pancreatic cancer); SH-SYSY (human neuroblastoma cells); and HCT-116 (colon-carcinoma cancer). The method of the present invention can be performed in vitro as well as in vivo in a subject. As used herein, “apoptosis” refers to cell death which is wholly or partially genetically controlled.

[3] = system: H2452 (human mesothelioma); assay: Cell line susceptibility testing; assay type: cell-based; settings: 1-3 μM range
Description: as §4

[4] = system: MDA-MB-468 (human breast cancer); assay: Cell line susceptibility testing; assay type: cell-based; settings: 1-3 μM range
Description: as §4

C6 (rat glioblastoma) = assay: Cell line susceptibility testing; assay type: cell-based; settings: 1-3 μM range
Description: as §4

[5] = system: U373 (human glioblastoma); assay: Cell line susceptibility testing; assay type: cell-based; settings: 1-3 μM range
Description: as §4

Mel501 (human melanoma) = assay: Cell line susceptibility testing; assay type: cell-based; settings: 1-3 μM range
Description: as §4

U87 (human glioblastoma) = assay: Cell line susceptibility testing; assay type: cell-based; settings: 1-3 μM range
Description: as §4

U87 glioblastoma cells = assay: Combination with temozolomide: apoptotic nuclei in U87 cells; assay type: cell-based, human; settings: one day, sub-lethal TZIP 1 μM and TMZ 50 μM, separately or in combination
Description: (§5) Cells were cultured for one day with sub-lethal levels of TAT-d/n-ATF5 (TZIP 1 μM) and TMZ (50 μM) either separately or in combination, and then assessed for proportion of cells with apoptotic nuclei. TMZ is presently the first-line treatment for human GBM. The data reveal that TAT-d/n-ATF5 not only functions in presence of TMZ, but that the two drugs act in synergy to kill GBM cells.
as §5, with “As outlined in FIG. 18, cells” for “Cells”

[6] = system: U87 human glioblastoma cells; assay: Cell viability, MTA assay; assay type: cell-based
Description: as §2
FIG. 20 depicts synthetic PEN-d/n-ATF5 treatment decreasing cell viability of cultured U87 human glioblastoma cells as established by MTA assay. 5 days treatment at indicated concentrations (μM).
5 days treatment at indicated concentrations (μM), as detected using an MTA assay.

BCL2 survival protein = assay: Western immunoblotting for BCL2 in U87 cells; assay type: cell-based, human; settings: 30 hrs
Description: (§6) Cultured U87 human glioblastoma cells were treated with the indicated concentrations of TATZIP (TAT-d/n-ATF5 peptide) (in μM) for 30 hrs. The cells were then harvested and assessed by Western immunoblotting for expression of the survival protein BCL2. These findings indicate that in addition to elevating pro-death CHOP, TAT-d/n-ATF5 may also kill tumor cells by reducing their levels of the BCL2 survival protein.
as §6, with “As outlined in FIG. 17, cultured” for “Cultured”

DDIT3 (CHOP) = assay: Western immunoblotting for CHOP in various tumor cell lines; assay type: cell-based; settings: times and doses per FIG. 15
Description: Cells were treated with TAT-d/n-ATF5 for the indicated times at the indicated doses (in μM) and then harvested and analyzed by Western immunoblotting for expression of CHOP and other non-responsive proteins.
TAT-d/n-ATF5 (TAT-ZIP) peptide induces expression of the pro-death gene DDIT3 (CHOP) in various tumor cell lines. Cells were treated with TAT-d/n-ATF5 for the times and doses (in μM) indicated in FIG. 15 and then harvested and analyzed by Western immunoblotting for expression of CHOP and other non-responsive proteins.

U87 cells = assay: Apoptotic nuclei in U87 cells after CHOP silencing with siRNA; assay type: cell-based, human; settings: siCHOP versus control siRNA, then peptide for 2 days
Description: Cells were treated with siCHOP to silence CHOP expression (top Western immunoblot) or with control siRNA. They were then exposed to TAT-d/n-ATF5 for 2 days and assessed for proportion of cells with apoptotic nuclei. The data support the idea that part of the mechanism by which TAT-d/n-ATF5 kills tumor cells is by increasing their expression of CHOP which in turn mediates death.
Cells were treated with siCHOP to silence CHOP expression (top Western immunoblot of FIG. 16) or with control siRNA. They were then exposed to TAT-d/n-ATF5 for 2 days and assessed for proportion of cells with apoptotic nuclei.

[7] = system: primary GS9-6 human glioblastoma stem cells; assay: Annexin V/PI staining and flow cytometry of spheres; assay type: cell-based; settings: 6 days of treatment
Description: FIG. 22 depicts synthetic PEN-d/n-ATF5 promoting apoptotic death of primary GS9-6 human glioblastoma stem cells growing in culture as spheres. 6 days of treatment and data determined by Annexin V/PI staining and flow cytometry
FIG. 23 depicts recombinant PEN-d/n-ATF5 promoting apoptotic death of primary GS9-6 human glioblastoma stem cells growing in culture as spheres. 5 days of treatment and data determined by Annexin V/PI staining and flow cytometry.
Data reflects 6 days of treatment. Data determined by Annexin V/PI staining and flow cytometry.
5 days treatment. Data determined by Annexin V/PI staining and flow cytometry.

Sequence of endogenous ATF5 (Q9Y2D1 208-282 limits assumed): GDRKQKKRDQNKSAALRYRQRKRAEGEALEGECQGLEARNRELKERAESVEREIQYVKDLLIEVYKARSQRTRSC

Molecule	levels of endogenous ATF5 (endogenous ATF5)	proportion of cells with apoptotic nuclei (MEL501 melanoma cells)	cell viability (MSG Cells)	cell viability (U373)	proportion of viable cells (lower left quadrant) [1]	dying cell proportion (lower right and upper right quadrants) ([1]; treated, controls 9%)	susceptibility of cell line [2]	susceptibility of cell line [3]	susceptibility of cell line [4]	susceptibility of cell line (C6 (rat glioblastoma))	susceptibility of cell line [5]	susceptibility of cell line (Mel501 (human melanoma))	susceptibility of cell line (U87 (human glioblastoma))	cell killing in combination with temozolomide (proportion of cells with apoptotic nuclei) (U87 glioblastoma cells)	cell viability ([6]; 3 μM, 3-5 days)	expression of the survival protein BCL2 (BCL2 survival protein)	expression of CHOP (DDIT3 (CHOP))	effect of silencing of CHOP with siRNA on death caused by the peptide (U87 cells)	apoptotic death [7]	cell viability ([6]; 5 days treatment, concentrations (μM) per FIG. 20)
TAT-d/n-ATF5: TAT-linked dominant-negative ATF5 peptide, recombinant; probably SEQ ID NO: 17 (protein) MGSSHHHHHHSSGLVPRGSHMLEYGRKKRRQRRRYPYDVPDYAMASMTGGQQMGRDPDLEQRAEELARENEELLEKEAEELEQENAELEGECQGLEARNRELRERAESV	greatly reduces expression of endogenous ATF5	promoted apoptosis in a dose-dependent fashion	decreases viability	decreases viability	58%	36%	susceptible	susceptible	susceptible	susceptible	susceptible	susceptible	susceptible	synergizes with temozolomide (TMZ) to kill	decreases viability	down-regulates BCL2 survival protein	elevation of CHOP in all cases	partially protects		
synthetic PEN-d/n-ATF5: chemically synthesized Penetratin-linked dominant-negative ATF5 peptide; probably SEQ ID NO: 19 (peptide) RQIKIWFQNRRMKWKKLEQRAEELARENEELLEKEAEELEQENAELEGECQGLEARNRELKERAESV																			promotes apoptotic death	decreases cell viability
